The target in assay [1] is HA-Rtn2 (maize).
The target in assay [2] is HA-Rtn2(mAIM1,2,5,6) (maize).
Assay [3] deals with HA-Rtn2 (maize). Nature of the assay: co-IP; anti-HA affinity gel on lysates of Arabidopsis protoplasts (wild type; also atg5-1) transiently expressing the proteins, incubated with or without 2 mM DTT or 5 μg/mL tunicamycin for 3 hr; 150 mM Tris-HCl pH 7.5, 150 mM NaCl, 1.5% Triton X-100, 2 hr at 4°C.
For the next assay, the target named is GFP-Atg8a. Nature of the assay: co-immunoprecipitation, densitometry of immunoblots. The following applies: Arabidopsis protoplasts; immunoprecipitation with anti-HA antibodies; three biological replicates; parent: est. 1.0; read off a plot. (In general: In western blotting, separated proteins are transferred to a membrane and probed.)
Assay [4] has as its target maize Atg8a, split-ubiquitin two-hybrid fusion. Nature of the assay: split-ubiquitin Y2H. The following applies: colonies on -LWHA medium versus -LW medium, bait pBT3N-ATG8a, parent: est. 52, read off a plot.

GFP-Atg8a (natural protein) gave a percent of Arabidopsis protoplasts (DTT and ConA) with autophagic bodies labeled with both GFP-Atg8a and Rtn2-mCherry (Rtn2 as mCherry fusion) with HA-Rtn2 (maize) [1] of 54%. Further, the percent of Arabidopsis protoplasts (DTT and ConA) with autophagic bodies labeled with both GFP-Atg8a and Rtn2(mAIM1)-mCherry (mCherry fusion) in the assay with HA-Rtn2(mAIM1) (maize) amounted to 42%. This substance also had a percent of Arabidopsis protoplasts (DTT and ConA) with autophagic bodies labeled with both GFP-Atg8a and Rtn2(mAIM1,2,5,6)-mCherry (mCherry fusion) in assay [2] of 23%. In addition, in the assay with HA-Rtn2 (maize) [3], the fold increase in binding upon DTT treatment against no DTT turned out to be 3 fold. HA-Rtn2 mAIM1: the ratio to parent with GFP-Atg8a came out at 0.87. Still for that read-out and setting: next, HA-Rtn2 mAIM1,2,5,6: 0.02; HA-Rtn2 mAIM1,5: 0.38. As to HA-Rtn2 mAIM1,5,6, the ratio to parent with GFP-Atg8a was determined as 0.22.

Regarding “maize Rtn2, split-ubiquitin two-hybrid fusion mAIM1”, the response in assay [4] (prey pPR3C-Rtn2(mAIM1)) amounted to 33%. In the case of “maize Rtn2, split-ubiquitin two-hybrid fusion mAIM1,2,5,6”, the response in assay [4] (prey pPR3C-Rtn2(mAIM1,2,5,6)) was found to be 7%.

Take “maize Rtn2, split-ubiquitin two-hybrid fusion mAIM1,5”: the response in assay [4] (prey pPR3C-Rtn2(mAIM1,5)) amounted to 16%. In the case of “maize Rtn2, split-ubiquitin two-hybrid fusion mAIM1,5,6”, the response in assay [4] (prey pPR3C-Rtn2(mAIM1,5,6)) was determined as 12%.

Values taken from PMC7046470.
